The text below walks through data of US20230302054A1.

The experiment deals with CD19 antigen on NALM-6 tumor cells (pre-B cell leukemia) (human) (UniProt P15391). As to the kind of experiment: cell-based or functional assay.

Some results are limits rather than exact numbers.

CD19 antigen on NALM-6 tumor cells (pre-B cell leukemia) (human), sequence (P15391 20-556): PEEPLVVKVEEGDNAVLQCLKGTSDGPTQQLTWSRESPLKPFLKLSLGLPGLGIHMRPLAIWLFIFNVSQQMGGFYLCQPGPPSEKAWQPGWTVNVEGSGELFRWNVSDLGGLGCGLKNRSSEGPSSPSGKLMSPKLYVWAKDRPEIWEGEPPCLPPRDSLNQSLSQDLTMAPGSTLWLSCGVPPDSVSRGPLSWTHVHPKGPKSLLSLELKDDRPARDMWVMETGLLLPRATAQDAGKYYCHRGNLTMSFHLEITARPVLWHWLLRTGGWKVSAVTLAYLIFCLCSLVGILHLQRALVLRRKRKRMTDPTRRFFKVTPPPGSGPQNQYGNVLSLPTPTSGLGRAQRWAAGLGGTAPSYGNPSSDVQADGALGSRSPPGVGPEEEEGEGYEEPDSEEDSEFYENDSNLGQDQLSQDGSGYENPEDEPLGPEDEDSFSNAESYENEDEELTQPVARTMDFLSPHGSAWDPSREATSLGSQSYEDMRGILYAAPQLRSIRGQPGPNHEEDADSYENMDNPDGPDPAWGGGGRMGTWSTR

Take “Anti-hCD19-CD3 bispecific T cell engager (BiTE) (InvivoGen, #bimab-hcd19cd3) (bispecific antibody)”: the BiTE-mediated NALM-6 tumor killing (luciferase-based readout, Bcl-xL-transfected CD8+ T cells as effectors) is > 95%.
